The target of the data set is T1, FOXA2 (immunoprecipitated from control NCI-H292 cells) (Homo sapiens? (NCI-H292 cells), UniProt Q9Y261 1-457).
T1 sequence: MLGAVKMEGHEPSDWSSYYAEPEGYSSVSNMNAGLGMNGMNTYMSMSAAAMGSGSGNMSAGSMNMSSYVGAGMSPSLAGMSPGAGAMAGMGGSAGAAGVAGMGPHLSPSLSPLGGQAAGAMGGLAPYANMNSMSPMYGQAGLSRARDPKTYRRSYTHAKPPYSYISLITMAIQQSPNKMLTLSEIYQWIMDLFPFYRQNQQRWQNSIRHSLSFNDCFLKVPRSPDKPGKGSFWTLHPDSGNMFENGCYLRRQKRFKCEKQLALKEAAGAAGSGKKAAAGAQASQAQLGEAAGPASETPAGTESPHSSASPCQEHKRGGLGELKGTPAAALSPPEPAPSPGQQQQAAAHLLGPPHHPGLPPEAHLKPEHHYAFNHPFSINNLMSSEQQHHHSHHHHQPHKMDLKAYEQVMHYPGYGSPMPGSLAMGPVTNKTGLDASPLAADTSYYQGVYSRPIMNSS
In words: EMSA; untreated control cells; inhibited by 20-fold unlabeled probe and by anti-FOXA2 antibody; 10 mM Hepes pH 7.9, 1 mM EDTA, 5 mM MgCl2, 10% glycerol, DTT (printed '0.5 m MDTT', probably 0.5 mM), 1 mg/ml BSA, 1 ug poly(dI-dC); 2.5 ug FOXA2; 20 min, room. Particulars: protein: native; blunt.

B1: MUC5B promoter FOXA2 site probe (dsDNA)
DNA 1: CCTCCCCGAGAGCAAACACACGTGGCTGGA
DNA 2: TCCAGCCACGTGTGTTTGCTCTCGGGGAGG
Regarding B1, the binding result is reported as “binds”.

Source of the values: paper PMC3765780, “Pyocyanin-induced mucin production is associated with redox modification of FOXA2”.
